What is called Vmax is the top rate of the reaction or transport when substrate is in excess.

Substrate in the data set: N
Nature of the data set: cells, lysate or membranes. The settings on record: intact cells, total NH3 + NH4+, 0.1% DMSO, no inhibitor, whole-cell nitrite read-out.

[1] abbreviates: 10 mM HEPES pH 7, 37°C, pH 7.0, 37.0 °C.
Where [2] appears, read: 50 mM sodium phosphate pH 7.7, 2 mM MgCl2, 30°C, pH 7.7, 30.0 °C.

B1: AMO from "Ca. Nitrosocosmicus franklandus" C13 (Candidatus Nitrosocosmicus franklandianus) (protein)
chain 1: MVWLRRTTHYLFIVVVAVNSTLLTINAGDYIFYTDWAWTSFVVFSISQSTMLVVGAIYYMLFTGVPGTATYYATIMTIYTWVAKGAWFALGYPYDFVVVPVWIPSAMLLDLAYWATRRNKHAAILIGGVLVGMSLPLFNMINLLLVADPLEMAFKYPRPTLPPYMTPIEPQVGKFYNSPVALGAGAGAVLCVPIAALGAKLNTWTYRWMAAWSKWD
chain 2: MNEKSGNKPAMVFLIVTFVAGASILASIIALLPLADGHGVQAQLQSRFVRINNEAFSAQSLNTGDTLVVTGELQSLVNRPMRGWISLFSESTNAGNRWEFVSRDPPGNIIEIQPQETVPYRLEAKALEPGVYHVHTQLNLASVGPGLGPGQTIQVVGDPILKPIPWNNIIYQSIIIAAGLGVTFATRPWQVI
chain 3: MAQMPALIPKEVEIQRLKKIYLMVIMLGSIAASVEVDNFVDGSLHQTAIRDSAFTPAHWWLYSHFIALPLGWGFVAMYDRRVPVLRGPNNSMNTGLKITIIGYLATMFTIGINEMWHFWFVEEIFSVPNHWMFNMGVVVAFMGALAYVVRVYARLVELGAETPARNPYVAEMYKLALEGKLYSRSIP
Take B1: under setting [1], the Km is listed as 26.7 (4.7) μM and the Vmax turned out to be 0.0641 µmol/min/mg.

B2: AMO from Nitrosomonas europaea (Nitrosomonas europaea ATCC 19718) (protein)
chain 1: SIFRTEEILKAAKMPPEAVHMSRLIDAVYFPILIILLVGTYHMHFMLLAGDWDFWMDWKDRQWWPVVTPIVGITYCSAIMYYLWVNYRQPFGATLCVVCLLIGEWLTRYWGFYWWSHYPINFVTPGIMLPGALMLDFTLYLTRNWLVTALVGGGFFGLLFYPGNWPIFGPTHLPIVVEGTLLSMADYMGHLYVRTGTPEYVRHIEQGSLRTFGGHTTVIAAFFSAFVSMLMFTVWWYLGKVYCTAFFYVKGKRGRIVHRNDVTAFGEEGFPEGIK
chain 2: MTVTLDVSTVAAHGERSQEPFLRMRTVQWYDIKWGPEVTKVNENAKITGKFHLAEDWPRAAAQPDFSFFNVGSPSPVFVRLSTKINGHPWFISGPLQIGRDYEFEVNLRARIPGRHHMHAMLNVKDAGPIAGPGAWMNITGSWDDFTNPLKLLTGETIDSETFNLSNGIFWHVVWMSIGIFWIGVFTARPMFLPRSRVLLAYGDDLLMDPMDKKITWVLAILTLALVWGGYRYTENKHPYTVPIQAGQSKVAALPVAPNPVSIVITDANYDVPGRALRVTMEVTNNGDIPVTFGEFTTAGIRFINSTGRKYLDPQYPRELIAVGLNFDDESAIQPGQTKELKMEAKDALWEIQRLMALLGDPESRFGGLLMSWDAEGNRHINSIAGPVIPVFTKL
chain 3: MATTLGTSSASSVSSRGYDMSLWYDSKFYKFGMITMLLVAIFWVWYQRYFAYSHGMDSMEPEFDRVWMGLWRVHMAIMPLFALVTWGWILKTRDTKEQLDNLDPKLEIKRYFYYMMWLGVYIFGVYWGGSFFTEQDASWHQVIIRDTSFTPSHVVMFYGSFPMYIVCGVATYLYAMTRLPLFSRGISFPLVMAIAGPLMILPNVGLNEWGHAFWFMEELFSAPLHWGFVVLGWAGLFQGGVAAQIITRYSNLTDVVWNNQSKEILNNRIVA
Take B2: under setting [2], the Km is recorded as 520.3 (19.6) μM and the Vmax amounted to 0.324 µmol/min/mg.

These data come from publication PMC7170481, “Inhibition of Ammonia Monooxygenase from Ammonia-Oxidizing Archaea by Linear and Aromatic Alkynes” (Applied and Environmental Microbiology, 2020).
